Assay results taken from patent US20090075314A1 (DUKE UNIVERSITY, published 2009).
No end group written: not given here.

T1: human gastrin/CCK-B receptor (human, UniProt P32239 1-447)
T1 construct: Permanently expressed with arrestin-GFP in HEK-293 cells (Clone A); also called gastrin receptor; homo sapiens cholecystokinin B receptor
T1 sequence: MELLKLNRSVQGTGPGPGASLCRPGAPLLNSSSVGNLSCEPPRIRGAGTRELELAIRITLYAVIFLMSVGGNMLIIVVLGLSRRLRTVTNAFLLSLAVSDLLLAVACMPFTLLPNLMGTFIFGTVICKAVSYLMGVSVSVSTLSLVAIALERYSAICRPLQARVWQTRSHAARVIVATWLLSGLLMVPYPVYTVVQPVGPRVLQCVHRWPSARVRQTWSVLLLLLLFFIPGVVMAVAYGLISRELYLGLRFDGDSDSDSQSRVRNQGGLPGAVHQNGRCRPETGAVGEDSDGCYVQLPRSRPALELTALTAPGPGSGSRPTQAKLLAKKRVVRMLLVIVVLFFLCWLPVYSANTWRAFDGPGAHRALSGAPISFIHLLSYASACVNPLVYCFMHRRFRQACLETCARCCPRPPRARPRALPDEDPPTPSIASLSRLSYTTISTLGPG


Tests used:
[1] = target: T1, human gastrin/CCK-B receptor; experiment: cell-based or functional assay
[2] = target: T1, human gastrin/CCK-B receptor; experiment: derived from competitive displacement of [3H]CCK-8 from Clone A by hG17
Procedure: (§1) Membrane Preparation/Binding—All steps were performed at 4° C. Membrane binding was performed in triplicate as described in Shetzline et al., J. Biol. Chem. 273:[…] (1998). Membrane fractions were assayed immediately or stored at −80° C. […] Data were analyzed using Graph Pad-Prism.
(§2) Data are presented as mean±SEM.

[3] = target: T1, human gastrin/CCK-B receptor; experiment: competitive displacement of [3H]CCK-8 from Clone A by hG17
Procedure: as §1, §2

arrestin-GFP translocation (TI/TF, two hours at 37° C.) [1] [nM]	Kd [2] [nM]	EC50 [3] [nM]	Molecule
2.4	–	–	pentagastrin (peptide)
–	17	28	QGPWLEEEEEAYGWMDF-NH2 (peptide, UniProt P01350 76-92, looked up, domain: gastrin-17; also called hGl 7) [synthetic human gastrin-17 peptide (hG17)]
